The target in test [1] is T1, human PLK1-PBD (371-594) (human, UniProt P53350 371-594).
T1 construct: range 371-594; Made in E. coli as a GST fusion (pGEX6p-1); also called PBD of PLK1; purified PBD
Description: fluorescence polarization, FITC peptide 10 nM, PBD 0 to 4 µM.

The target of another test is T2, human PLK3-PBD (412-646) (human, UniProt Q9H4B4 412-646).
T2 construct: range 412-646; GST fusion from pGEX6p-1, GST cleaved by 3C protease
T2 sequence (looked up): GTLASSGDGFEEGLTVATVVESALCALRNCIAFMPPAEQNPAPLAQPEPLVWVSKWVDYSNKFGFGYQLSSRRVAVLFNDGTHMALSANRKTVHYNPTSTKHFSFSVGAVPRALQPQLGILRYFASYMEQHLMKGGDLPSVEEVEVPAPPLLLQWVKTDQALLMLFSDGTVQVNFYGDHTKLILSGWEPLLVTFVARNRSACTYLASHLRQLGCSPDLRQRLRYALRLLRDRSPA
Description: fluorescence polarization, FITC peptide 10 nM. The procedure: (§1) The final protein concentrations ranged from 0 to 4 uM, and the final peptide concentration was 10 nM. Fluorescence polarization was analyzed 30 min after mixing the peptide and proteins in a 96-well plate using an INFINTE 200 PRO (Tecan). Binding curves were fitted using the GraphPad Prism software.

A further test deals with T3, human PLK2-PBD (451-685) (human, UniProt Q9NYY3 451-685).
T3 construct: range 451-685; GST fusion from pGEX6p-1, GST cleaved by 3C protease
T3 sequence (looked up): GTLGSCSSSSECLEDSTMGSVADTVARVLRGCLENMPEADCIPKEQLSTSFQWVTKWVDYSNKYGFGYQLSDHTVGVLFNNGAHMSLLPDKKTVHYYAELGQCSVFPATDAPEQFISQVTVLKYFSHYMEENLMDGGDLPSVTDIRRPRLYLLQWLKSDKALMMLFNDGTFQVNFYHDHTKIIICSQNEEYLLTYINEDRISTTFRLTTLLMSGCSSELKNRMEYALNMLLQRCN
As to the kind of experiment: fluorescence polarization, FITC peptide 10 nM. The procedure: as §1

The target in test [2] is T4, NCAPG2 (detected by immunoblotting in Flag-PLK1 immunoprecipitates) (human, UniProt Q86XI2 1-1143, limits assumed).
T4 construct: Apparently the cells' own NCAPG2
T4 sequence: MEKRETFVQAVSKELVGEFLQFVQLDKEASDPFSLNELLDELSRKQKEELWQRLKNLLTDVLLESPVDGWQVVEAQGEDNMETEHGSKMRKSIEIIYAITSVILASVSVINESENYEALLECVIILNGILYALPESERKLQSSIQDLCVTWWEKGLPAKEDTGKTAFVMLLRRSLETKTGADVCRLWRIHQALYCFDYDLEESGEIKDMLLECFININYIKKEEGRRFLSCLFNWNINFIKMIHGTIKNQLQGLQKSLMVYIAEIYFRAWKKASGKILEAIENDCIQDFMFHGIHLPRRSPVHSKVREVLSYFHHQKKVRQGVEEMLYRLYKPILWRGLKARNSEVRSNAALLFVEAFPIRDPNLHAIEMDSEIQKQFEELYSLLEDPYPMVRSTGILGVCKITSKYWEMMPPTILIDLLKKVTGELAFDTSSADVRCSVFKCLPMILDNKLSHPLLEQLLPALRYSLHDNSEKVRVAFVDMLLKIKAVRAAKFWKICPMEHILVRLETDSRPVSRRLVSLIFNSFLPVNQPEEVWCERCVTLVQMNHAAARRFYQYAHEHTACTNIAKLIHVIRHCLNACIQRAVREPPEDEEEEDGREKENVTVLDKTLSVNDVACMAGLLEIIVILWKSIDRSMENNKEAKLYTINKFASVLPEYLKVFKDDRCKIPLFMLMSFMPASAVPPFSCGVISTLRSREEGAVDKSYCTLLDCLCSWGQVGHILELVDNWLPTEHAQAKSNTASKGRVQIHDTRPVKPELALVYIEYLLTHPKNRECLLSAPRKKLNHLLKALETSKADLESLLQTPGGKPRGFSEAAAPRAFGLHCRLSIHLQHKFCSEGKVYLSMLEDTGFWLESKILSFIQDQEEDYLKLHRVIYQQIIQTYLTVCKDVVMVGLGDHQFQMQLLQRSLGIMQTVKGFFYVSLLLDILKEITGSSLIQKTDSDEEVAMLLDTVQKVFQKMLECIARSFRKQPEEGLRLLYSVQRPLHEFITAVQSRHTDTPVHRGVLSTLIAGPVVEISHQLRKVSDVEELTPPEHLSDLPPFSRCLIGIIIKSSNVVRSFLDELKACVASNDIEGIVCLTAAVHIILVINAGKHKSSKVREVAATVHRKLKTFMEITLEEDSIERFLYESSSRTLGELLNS
As to the kind of experiment: Flag-bead pull-down, NCAPG2 immunoblot. The procedure: The primary antibodies were purchased from commercial sources as follows: Histon H3 pS10 (Abcam, Cambridge, UK), NCAPG2 (Novus Biological, 1/1000), PLK1 (Novus Biological, 1/1000), BubR1 (BD Biosciences, 1/1000), β-actin (Sigma-Aldrich, 1/5000), and CREST (ImmunoVision, 1/1000). BubR1 676 antibodies (1/10000) were prepared as previously reported (Elowe, S., et al. Tension-sensitive Plk1 phosphorylation on BubR1 regulates the stability of kinetochore microtubule interactions. Genes Dev 21, 2205-19 (2007)). The precipitates were washed with TAP buffer three times at 4° C., re-suspended in 20 μl of 2X Sample buffer (125 mM Tris (pH 6.8), 200 mM DTT, 4% SDS, 20% Glycerol, 0.004% Bromophenol Blue) and proteins were denatured at 100° C. for 5 min.
For the detection of proteins using the immunoblottings, subjects were protein complexes from immunoprecipitation or whole cell lysates harvested from indicated conditions. Whole cells were harvested with lysis buffer (20 mM Tris, 5 mM EDTA, 10 mM Na₄P₂O₇, 100 mM NaF, 2 mM Na₃VO₄, 1% Np-40, 0.2% Protease Inhibitor Cocktail, and 1 mM PMSF) and centrifuged at 10,000 rpm, 4° C., 10 min. Protein concentration was determined using BCA™ protein assay kit (Pierce, Rockford, USA). […]

In test [3] the target is T1, human PLK1-PBD (371-594). Description: fluorescence polarization, FITC peptide 10 nM. The procedure:
as §1

Where no end group is shown, it is not given here. [ ]: non-standard residue; d: D form. pT = C[C@@H](OP(=O)(O)O)[C@H](N)C(=O)O

T1 sequence (P53350 371-594 limits assumed): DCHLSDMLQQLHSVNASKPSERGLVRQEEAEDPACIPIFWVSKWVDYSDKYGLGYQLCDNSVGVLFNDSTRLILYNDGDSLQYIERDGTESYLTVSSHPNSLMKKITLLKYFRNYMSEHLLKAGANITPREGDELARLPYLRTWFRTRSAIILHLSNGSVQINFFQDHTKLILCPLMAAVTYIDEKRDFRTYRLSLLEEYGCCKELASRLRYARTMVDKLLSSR

On to FITC-labelled 1010pT peptide (GVLSpTLI), for which the Kd with human PLK1-PBD (371-594) [1] came out at 69.9 nM.

B1: FITC-labelled 1010pT peptide (GVLSpTLI) (peptide)
peptide: GVLS[pT]LI
modifications: also: FITC label, site not given here
notes: this peptide carries pThr at the fifth position; also called phosphorylated 7-mer peptide 1006GVLS-pT-LI1012
In the case of B1, the binding result in the test with human PLK3-PBD (412-646) and with human PLK2-PBD (451-685) was “no binding (tested: protein 0 to 4 uM)” each time.

B2: Flag-Plk1^FAA (other, UniProt P53350 1-603, looked up)
chain: MSAAVTAGKLARAPADPGKAGVPGVAAPGAPAAAPPAKEIPEVLVDPRSRRRYVRGRFLGKGGFAKCFEISDADTKEVFAGKIVPKSLLLKPHQREKMSMEISIHRSLAHQHVVGFHGFFEDNDFVFVVLELCRRRSLLELHKRRKALTEPEARYYLRQIVLGCQYLHRNRVIHRDLKLGNLFLNEDLEVKIGDFGLATKVEYDGERKKTLCGTPNYIAPEVLSKKGHSFEVDVWSIGCIMYTLLVGKPPFETSCLKETYLRIKKNEYSIPKHINPVAASLIQKMLQTDPTARPTINELLNDEFFTSGYIPARLPITCLTIPPRFSIAPSSLDPSNRKPLTVLNKGLENPLPERPREKEEPVVRETGEVVDCHLSDMLQQLHSVNASKPSERGLVRQEEAEDPACIPIFWVSKFVDYSDKYGLGYQLCDNSVGVLFNDSTRLILYNDGDSLQYIERDGTESYLTVSSHPNSLMKKITLLKYFRNYMSEHLLKAGANITPREGDELARLPYLRTWFRTRSAIILHLSNGSVQINFFQDATALILCPLMAAVTYIDEKRDFRTYRLSLLEEYGCCKELASRLRYARTMVDKLLSSRSASNRLKAS
notes: also called FAA mutant; substrate non recognizable FAA mutant; not shown: Flag tag
Consider B2, for which the binding result in test [2] is on record as “no binding”.

For the molecule GVLSDLI (also: FITC label, site not given here) [FITC-labeled 1010D peptide (GVLSDLI)], the binding result in the test with human PLK1-PBD (371-594) [3] is reported as “no binding (tested: protein 0 to 4 uM)”.

With GVLSELI (also: FITC label, site not given here) [FITC-labeled 1010E peptide (GVLSELI)], the binding result with human PLK1-PBD (371-594) [3] is recorded as “no binding (tested: protein 0 to 4 uM)”.

For the origin of these results see US20160347801A1 (NATIONAL CANCER CENTER, published 2016).
